Data as given in article PMC12318544, “Roughhousing with Ions: Surface-Induced Dissociation and Electron Capture Dissociation as Diagnostics of Q-Cyclic IMS-TOF Instrument Tuning Gentleness” (Journal of the American Society for Mass Spectrometry, 2024).

T1: human recombinant C-reactive protein (human), P02741
T1 chain: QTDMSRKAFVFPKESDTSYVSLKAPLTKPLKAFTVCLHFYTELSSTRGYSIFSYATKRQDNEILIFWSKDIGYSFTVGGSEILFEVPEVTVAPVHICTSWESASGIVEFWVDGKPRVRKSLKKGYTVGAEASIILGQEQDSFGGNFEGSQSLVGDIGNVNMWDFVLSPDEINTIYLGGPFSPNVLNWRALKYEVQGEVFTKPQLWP


Legend:
Assay in all cases: native MS; nanoESI on a Waters SELECT Series Cyclic IMS (Q-IM-TOF), gentle tuning at low cone voltage; quadrupole-selected charge-reduced precursor, surface-induced dissociation and ion mobility; 160/40 ammonium acetate/triethylammonium acetate; CRP 1 uM, SA 2-3 uM, PhosB 4 uM; TRAP ~1.5 uM complex in 600 mM ammonium acetate with TEAA added for 15+
streptavidin = streptavidin (UniProt P22629)
[1] = target: T1, human recombinant C-reactive protein …; details: remark: other sources report otherwise
[2] = target: the molecule itself

Molecule | stoichiometry N [2] | further results
streptavidin (from UniProt P22629 25-183) (natural protein) |  | stoichiometry N (streptavidin): 4
human recombinant C-reactive protein, P02741 19-224 (natural protein) QTDMSRKAFVFPKESDTSYVSLKAPLTKPLKAFTVCLHFYTELSSTRGYSIFSYATKRQDNEILIFWSKDIGYSFTVGGSEILFEVPEVTVAPVHICTSWESASGIVEFWVDGKPRVRKSLKKGYTVGAEASIILGQEQDSFGGNFEGSQSLVGDIGNVNMWDFVLSPDEINTIYLGGPFSPNVLNWRALKYEVQGEVFTKPQLWP |  | stoichiometry N [1]: 5
phosphorylase B (enzyme, UniProt P00489 1-843, looked up, phosphorylase B, dimer, 197 kDa; This catalogue product is recalled to be from rabbit muscle (surmise); also called PhosB; source: bought: Millipore Sigma (P/N P6635)) MSRPLSDQEKRKQISVRGLAGVENVTELKKNFNRHLHFTLVKDRNVATPRDYYFALAHTVRDHLVGRWIRTQQHYYEKDPKRIYYLSLEFYMGRTLQNTMVNLALENACDEATYQLGLDMEELEEIEEDAGLGNGGLGRLAACFLDSMATLGLAAYGYGIRYEFGIFNQKICGGWQMEEADDWLRYGNPWEKARPEFTLPVHFYGRVEHTSQGAKWVDTQVVLAMPYDTPVPGYRNNVVNTMRLWSAKAPNDFNLKDFNVGGYIQAVLDRNLAENISRVLYPNDNFFEGKELRLKQEYFVVAATLQDIIRRFKSSKFGCRDPVRTNFDAFPDKVAIQLNDTHPSLAIPELMRVLVDLERLDWDKAWEVTVKTCAYTNHTVLPEALERWPVHLLETLLPRHLQIIYEINQRFLNRVAAAFPGDVDRLRRMSLVEEGAVKRINMAHLCIAGSHAVNGVARIHSEILKKTIFKDFYELEPHKFQNKTNGITPRRWLVLCNPGLAEIIAERIGEEYISDLDQLRKLLSYVDDEAFIRDVAKVKQENKLKFAAYLEREYKVHINPNSLFDVQVKRIHEYKRQLLNCLHVITLYNRIKKEPNKFVVPRTVMIGGKAAPGYHMAKMIIKLITAIGDVVNHDPVVGDRLRVIFLENYRVSLAEKVIPAADLSEQISTAGTEASGTGNMKFMLNGALTIGTMDGANVEMAEEAGEENFFIFGMRVEDVDRLDQRGYNAQEYYDRIPELRQIIEQLSSGFFSPKQPDLFKDIVNMLMHHDRFKVFADYEEYVKCQERVSALYKNPREWTRMVIRNIATSGKFSSDRTIAQYAREIWGVEPSRQRLPAPDEKIP | 2 | 
Tryptophan RNA-binding attenuation protein (TRAP) from Bacillus stearothermophilus (natural protein, UniProt Q9X6J6 1-74, looked up, also called TRAP bst; source: Mark Foster's lab; copies: 11) MYTNSDFVVIKALEDGVNVIGLTRGADTRFHHSEKLDKGEVLIAQFTEHTSAIKVRGKAYIQTRHGVIESEGKK | 11 | 
